# From patent US8697386B2, “Methods and compositions for modulating hepsin activation of macrophage-stimulating protein” (Genentech, Inc., priority 2009, dated 2014)
# “Also recorded” adds a separate entry of the source.
# Key:
# hepsin = biological target: T1, hepsin (Homo sapiens, UniProt P05981); assay: In vitro activation of pro-MSP by recombinant hepsin (SDS-PAGE); format: biochemical; details: 25 μg/ml substrate, hepsin 1.25-10 nM, 37° C., SDS-PAGE reducing; mutant up to 24 hours
# T1 construct: The extracellular domain of the human recombinant hepsin was expressed and purified as described; made in house
# T1 sequence (P05981 45-417 limits assumed): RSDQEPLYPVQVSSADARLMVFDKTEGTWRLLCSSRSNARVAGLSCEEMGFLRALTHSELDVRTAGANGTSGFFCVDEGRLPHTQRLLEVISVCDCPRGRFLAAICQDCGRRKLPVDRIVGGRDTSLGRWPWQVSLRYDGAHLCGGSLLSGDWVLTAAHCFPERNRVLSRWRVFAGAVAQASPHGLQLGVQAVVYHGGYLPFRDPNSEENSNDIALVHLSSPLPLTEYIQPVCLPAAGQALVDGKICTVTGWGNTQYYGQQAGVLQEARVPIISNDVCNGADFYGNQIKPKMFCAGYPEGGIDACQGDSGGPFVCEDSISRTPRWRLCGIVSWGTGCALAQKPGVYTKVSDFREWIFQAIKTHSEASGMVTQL
# Protocol: Analysis of in vitro activation of pro-msp by hepsin using sds-page: Pro-MSP (25 μg/ml) was incubated with different concentrations of hepsin (1.25 nM, 2.5 nM, 5 nM and 10 nM) in a buffer containing 50 mM Tris-HCl pH 8.0, 150 mM NaCl, 0.05% Triton-X100 and 2 mM CaCl2 at 37° C. Aliquots of the reaction mixture at different time points were mixed 6×-SDS sample buffer and the samples were boiled for 5 minutes at 95° C. and separated by SDS-PAGE using a 4-20% gradient gel. Protein was visualized after staining with SimplyBlue Safe Stain (Invitrogen, Carlsbad, Calif.). Similar experiments were performed with the pro-MSP that was mutated to render it uncleavable at Arg483-Val484(pro-MSP-R483E) to assess if proteolytic cleavage site occurs at a different site apart from the expected Arg483-Val484 bond in pro-MSP.
# human Ron = biological target: T2, human Ron (Homo sapiens, UniProt Q04912); assay: Binding to Ron by surface plasmon resonance (BIAcore); details: SPR; for detectable binding to Ron: up to a concentration of 1 μM
# T2 construct: the Ron (Sema IPT1)-IgG fusion protein was captured
# T2 sequence (Q04912 25-683 limits assumed): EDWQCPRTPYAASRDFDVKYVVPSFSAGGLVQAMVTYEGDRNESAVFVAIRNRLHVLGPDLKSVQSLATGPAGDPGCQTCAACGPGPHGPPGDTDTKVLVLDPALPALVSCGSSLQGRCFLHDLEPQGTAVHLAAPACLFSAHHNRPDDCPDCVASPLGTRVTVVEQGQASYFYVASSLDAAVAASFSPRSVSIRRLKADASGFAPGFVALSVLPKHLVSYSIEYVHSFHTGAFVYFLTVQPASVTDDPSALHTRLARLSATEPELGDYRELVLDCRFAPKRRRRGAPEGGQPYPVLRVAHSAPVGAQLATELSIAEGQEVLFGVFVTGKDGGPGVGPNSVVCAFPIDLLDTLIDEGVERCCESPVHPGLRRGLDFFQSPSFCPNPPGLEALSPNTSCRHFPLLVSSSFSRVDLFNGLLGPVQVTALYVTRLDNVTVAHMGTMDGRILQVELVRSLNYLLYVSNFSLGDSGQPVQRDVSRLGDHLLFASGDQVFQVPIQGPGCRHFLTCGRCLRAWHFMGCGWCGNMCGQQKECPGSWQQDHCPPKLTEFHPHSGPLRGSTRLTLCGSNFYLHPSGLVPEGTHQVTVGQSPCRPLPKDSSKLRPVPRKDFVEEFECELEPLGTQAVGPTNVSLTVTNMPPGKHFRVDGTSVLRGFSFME
# Protocol: Binding of hepsin-activated pro-MSP to Ron by surface plasmon resonance and ELISA: To determine binding affinity of hepsin-activated MSP to human Ron, surface plasmon resonance measurements on a BIAcore™-3000 instrument (GE Health Care, NJ) were performed. Rabbit anti-human IgG were chemically immobilized (amine coupling) on CM5 biosensor chips and the Ron (Sema IPT1)-IgG fusion protein was captured to give approximately 250 response units (RU). For kinetics measurements, different concentration of either hepsin-activated MSP or a commercially available MSP (R&D systems) were injected in HBS-P buffer at 25° C. with a flow rate of 30 μl/min. Association rates (kon) and dissociation rates (koff) were obtained by using a simple one-to-one Langmuir binding model (BIA-Evaluation) and the equilibrium dissociation constants (KD) were calculated (koff/kon). For ELISA experiments, maxiSorp microtiter plates (Nunc, Roskilde, Denmark) were coated overnight at 4° C. with 2 μg/ml of rabbit anti-human IgG Fc specific antibody (Jackson ImmunoResearch Laboratory, West Grove, Pa.) in 50 mM sodium carbonate buffer, pH 9.6. After blocking with assay buffer (PBS pH 7.4, 0.5% BSA and 0.05% Tween-20, 15 PPM Proclin), 1 μg/ml Ron (Sema IPT1)-IgG fusion protein was added and plates were incubated for 1 hour with gentle shaking at room temperature. After washing with wash buffer (PBS, 0.05% polysorbate 20), His tagged MSP proteins were added for 1 hour. Bound MSP was detected using anti-His-HRP (Qiagen, Valencia, Calif.) followed by addition of TMB/H2O2 substrate (KPL, Gaithersburg, Md.). The reaction was stopped with 1M H3PO4 and the A450 was measured on a Molecular Devices (Sunnyvale, Calif.) SpectraMax Plus^384 microplate reader. The effective concentration to give half-maximal binding (EC50) was determined by a four parameter fit using Kaleidagraph (Synergy Software, Reading, Pa.).
# Ron signaling pathway = assay: Immunoblot for phosphorylated downstream kinases in A2780 cells overexpressing human Ron; format: cell-based; details: pro-MSP 10 and 50 ng/ml, 10 nM hepsin, 1 hour
# Protocol: Immunoblot for the detection of phosphorylated kinases: A human ovarian carcinoma cell line (A2780) overexpressing human Ron was used to study the phosphorylation of Ron and other downstream kinase. Cells at a density of 2×10^5 cells/well were cultured in 12-well plate and serum-starved for 24 hours. The cells were then stimulated with either pro-MSP (10 and 50 ng/ml) alone or in presence of 10 nM Hepsin for 1 hour. Mature MSP from a commercial source and hepsin were used as controls. Samples were prepared by washing cells twice with cold PBS followed by addition of 200 ul lysis buffer. Samples were then analyzed by SDS/PAGE on 4-12% Tris-glycine gels (Invitrogen, Carlsbad, Calif.). Proteins were transferred onto nitrocellulose membranes and subsequently treated with anti-Ron antibody or anti-phospho-AKT antibody or anti-phospho-MAPK antibody or anti-phospho-S6 antibody, overnight at 4° C. After washing, membranes were incubated with IRDye800-conjugated goat anti-mouse IgG (Rockland, Gilbertsville, Pa.) and AlexaFluor 680 goat anti-rabbit IgG (Invitrogen) for 1 h. Proteins were detected with the Odyssey Infrared Imaging System (LI-COR Biosciences, Lincoln, Nebr.).
# bone marrow macrophages = assay: Inhibition of nitric oxide (NO) synthesis in bone marrow macrophages; format: cell-based, mouse; details: MSP/pro-MSP 10 ng/ml, hepsin 1 nM, 24 hours, Griess reaction
# Protocol: Inhibition of NO synthesis by mature MSP: Bone marrow cells obtained from collected mouse femurs were pipetted to a single-cell suspension and then spun down. Red blood cells were lysed by incubation with erythrocyte lysis buffer for 5 minutes at room temperature. Cells were then suspended in macrophage differentiation medium (DMEM with glutamine containing 10% FBS, Pen/Strep and 50 ng/ml recombinant mCSF-1). Cells were then plated onto sterile 24-well non-tissue culture dishes. Medium was changed the next day and subsequently every 2 days. After 6 days in culture, the macrophages were mature and these mature cells were washed in serum-free DMEM and further incubated for 2 hours. Different reactions (total volume 300 μL) as indicated in the figure consisting of recombinant MSP (10 ng/ml), pro-MSP (10 ng/ml), hepsin (1 nM) and Fab25 (500 nM) were added to the respective wells and cultured for 24 hours at 37° C. in a tissue culture incubator. NO production was quantified using Griess reaction (Molecular Probes) according to manufacturer's recommendation.
Molecule,proteolytic cleavage/activation by hepsin (hepsin),detectable binding to Ron (human Ron),phosphorylation of MAP kinase and S6 kinase (activation of Ron signaling pathway) (Ron signaling pathway),effect on NO production in response to LPS (bone marrow macrophages),"Kd (human Ron; Ron-Fc captured on CM5 chip, 1:1 binding model, 25° C., read-out: KD, binding affinity to Ron)"
"pro-MSP: inactive single-chain precursor of MSP; recombinant human MSP with C672A mutation expressed in Chinese Hamster Ovary cells (protein, listed as Homo sapiens) MGWLPLLLLLTQCLGVPGQRSPLNDFQVLRGTELQHLLHAVVPGPWQEDVADAEECAGRCGPLMDCRAFHYNVSSHGCQLLPWTQHSPHTRLRRSGRCDLFQKKDYVRTCIMNNGVGYRGTMATTVGGLPCQAWSHKFPNDHKYTPTLRNGLEENFCRNPDGDPGGPWCYTTDPAVRFQSCGIKSCREAACVWCNGEEYRGAVDRTESGRECQRWDLQHPHQHPFEPGKFLDQGLDDNYCRNPDGSERPWCYTTDPQIEREFCDLPRCGSEAQPRQEATTVSCFRGKGEGYRGTANTTTAGVPCQRWDAQIPHQHRFTPEKYACKDLRENFCRNPDGSEAPWCFTLRPGMRAAFCYQIRRCTDDVRPQDCYHGAGEQYRGTVSKTRKGVQCQRWSAETPHKPQFTFTSEPHAQLEENFCRNPDGDSHGPWCYTMDPRTPFDYCALRRCADDQPPSILDPPDQVQFEKCGKRVDRLDQRRSKLRVVGGHPGNSPWTVSLRNRQGQHFCGGSLVKEQWILTARQCFSSCHMPLTGYEVWLGTLFQNPQHGEPSLQRVPVAKMVCGPSGSQLVLLKLERSVTLNQRVALICLPPEWYVVPPGTKCEIAGWGETKGTGNDTVLNVALLNVISNQECNIKHRGRVRESEMCTEGLLAPVGACEGDYGGPLACFTHNAWVLEGIIIPNRVCARSRWPAVFTRVSVFVDWIHKVMRLG",activated pro-MSP in a dose-dependent and time dependent manner,Neither pro-MSP nor the cleavage site mutant (pro-MSP-R483E) had any detectable binding; also recorded: No detectable binding,Neither hepsin nor pro-MSP alone was effective,did not inhibit,
pro-MSP-R483E: pro-MSP mutated to render it uncleavable at Arg483-Val484 (protein) QRSPLNDFQVLRGTELQHLLHAVVPGPWQEDVADAEECAGRCGPLMDCRAFHYNVSSHGCQLLPWTQHSPHTRLRRSGRCDLFQKKDYVRTCIMNNGVGYRGTMATTVGGLPCQAWSHKFPNDHKYTPTLRNGLEENFCRNPDGDPGGPWCYTTDPAVRFQSCGIKSCREAACVWCNGEEYRGAVDRTESGRECQRWDLQHPHQHPFEPGKFLDQGLDDNYCRNPDGSERPWCYTTDPQIEREFCDLPRCGSEAQPRQEATTVSCFRGKGEGYRGTANTTTAGVPCQRWDAQIPHQHRFTPEKYACKDLRENFCRNPDGSEAPWCFTLRPGMRAAFCYQIRRCTDDVRPQDCYHGAGEQYRGTVSKTRKGVQCQRWSAETPHKPQFTFTSEPHAQLEENFCRNPDGDSHGPWCYTMDPRTPFDYCALRRCADDQPPSILDPPDQVQFEKCGKRVDRLDQRRSKLEVVGGHPGNSPWTVSLRNRQGQHFCGGSLVKEQWILTARQCFSSCHMPLTGYEVWLGTLFQNPQHGEPSLQRVPVAKMVCGPSGSQLVLLKLERSVTLNQRVALICLPPEWYVVPPGTKCEIAGWGETKGTGNDTVLNVALLNVISNQECNIKHRGRVRESEMCTEGLLAPVGACEGDYGGPLACFTHNAWVLEGIIIPNRVCARSRWPAVFTRVSVFVDWIHKVMRLG,did not cleave,Neither pro-MSP nor the cleavage site mutant (pro-MSP-R483E) had any detectable binding,,,
commercially available MSP: recombinant active form of human MSP (R&D Systems) (protein) chain 1: QRSPLNDFQVLRGTELQHLLHAVVPGPWQEDVADAEECAGRCGPLMDCRAFHYNVSSHGCQLLPWTQHSPHTRLRRSGRCDLFQKKDYVRTCIMNNGVGYRGTMATTVGGLPCQAWSHKFPNDHKYTPTLRNGLEENFCRNPDGDPGGPWCYTTDPAVRFQSCGIKSCREAACVWCNGEEYRGAVDRTESGRECQRWDLQHPHQHPFEPGKFLDQGLDDNYCRNPDGSERPWCYTTDPQIEREFCDLPRCGSEAQPRQEATTVSCFRGKGEGYRGTANTTTAGVPCQRWDAQIPHQHRFTPEKYACKDLRENFCRNPDGSEAPWCFTLRPGMRAAFCYQIRRCTDDVRPQDCYHGAGEQYRGTVSKTRKGVQCQRWSAETPHKPQFTFTSEPHAQLEENFCRNPDGDSHGPWCYTMDPRTPFDYCALRRCADDQPPSILDPPDQVQFEKCGKRVDRLDQRRSKLR chain 2: VVGGHPGNSPWTVSLRNRQGQHFCGGSLVKEQWILTARQCFSSCHMPLTGYEVWLGTLFQNPQHGEPSLQRVPVAKMVCGPSGSQLVLLKLERSVTLNQRVALICLPPEWYVVPPGTKCEIAGWGETKGTGNDTVLNVALLNVISNQECNIKHRGRVRESEMCTEGLLAPVGACEGDYGGPLACFTHNCWVLEGIIIPNRVCARSRWPAVFTRVSVFVDWIHKVMRLG,,,,,4.4 nM
